Test results published in publication PMC11116518.

How the values were obtained:
[1] = biological target: PlpD I117C with an N-terminal TwinStrepII tag (P. aeruginosa (strain PA14)) (UniProt Q9HYQ6); test: cross-linking; in vivo disulfide-bond formation: cysteine mutants expressed in P. aeruginosa SEH88; intact cells in ice-cold PBS with 0.2 mM 4-DPS (or ethanol, mock) for 30 min; TCA precipitation, SDS-PAGE, immunoblot with the anti-PlpD C-terminal peptide antiserum
[2] = biological target: PlpD I532C with an N-terminal TwinStrepII tag (P. aeruginosa (strain PA14)) (UniProt Q9HYQ6); test: cross-linking; in vivo disulfide-bond formation, time course: cells in ice-cold PBS with 0.2 mM 4-DPS for 0, 2, 5, 15, 30, 60, 90 and 120 min; immunoblot with the anti-PlpD C-terminal peptide antiserum
[3] = biological target: PlpD I532C with an N-terminal TwinStrepII tag (P. aeruginosa (strain PA14)) (UniProt Q9HYQ6); test: cross-linking; in vivo disulfide-bond formation: cysteine mutants expressed in P. aeruginosa SEH88; intact cells in ice-cold PBS with 0.2 mM 4-DPS (or ethanol, mock) for 30 min; TCA precipitation, SDS-PAGE, immunoblot with the anti-PlpD C-terminal peptide antiserum
[4] = biological target: PlpD M249C with an N-terminal TwinStrepII tag (P. aeruginosa (strain PA14)) (UniProt Q9HYQ6); test: cross-linking; in vivo disulfide-bond formation, time course: cells in ice-cold PBS with 0.2 mM 4-DPS for 0, 2, 5, 15, 30, 60, 90 and 120 min; immunoblot with the anti-PlpD C-terminal peptide antiserum
[5] = biological target: PlpD M249C with an N-terminal TwinStrepII tag (P. aeruginosa (strain PA14)) (UniProt Q9HYQ6); test: cross-linking; in vivo disulfide-bond formation: cysteine mutants expressed in P. aeruginosa SEH88; intact cells in ice-cold PBS with 0.2 mM 4-DPS (or ethanol, mock) for 30 min; TCA precipitation, SDS-PAGE, immunoblot with the anti-PlpD C-terminal peptide antiserum
[6] = biological target: PlpD S118C with an N-terminal TwinStrepII tag (P. aeruginosa (strain PA14)) (UniProt Q9HYQ6); test: as above
[7] = biological target: PlpD V113C with an N-terminal TwinStrepII tag (P. aeruginosa (strain PA14)) (UniProt Q9HYQ6); test: as above

Substance: PlpD I117C with an N-terminal TwinStrepII tag (from UniProt Q9HYQ6 1-728) (natural protein)
- percent intermolecular disulfide bond formation [1]: 84%

Substance: PlpD I532C with an N-terminal TwinStrepII tag (from UniProt Q9HYQ6 1-728) (natural protein)
- percent intermolecular disulfide bonding, peak of the time course [2]: 63%
- percent of PlpD in intermolecular disulfide-bonded form (30 min 4-DPS) [3]: 65%
- stoichiometry N [3]: 2

Substance: PlpD M249C with an N-terminal TwinStrepII tag (from UniProt Q9HYQ6 1-728) (natural protein)
- percent intermolecular disulfide bonding, plateau of the time course (60-90 min) [4]: 91.5%
- percent of PlpD in intermolecular disulfide-bonded form (30 min 4-DPS) [5]: 65%
- stoichiometry N [5]: 2

Substance: PlpD S118C with an N-terminal TwinStrepII tag (from UniProt Q9HYQ6 1-728) (natural protein)
- percent intermolecular disulfide bond formation [6]: 84%

Substance: PlpD V113C with an N-terminal TwinStrepII tag (from UniProt Q9HYQ6 1-728) (natural protein)
- percent intermolecular disulfide bond formation [7]: 84%
